Reference: PMC2638020, “Large-Scale Structural Analysis of the Classical Human Protein Tyrosine Phosphatome” (Cell, 2009)

Target: the molecule itself
Assay: AUC; sedimentation equilibrium; 0.2, 0.4 and 0.8 mg/ml, 7500 and 10,000 rpm; global fit with a self-association model; dimer to monomers

B1: RPTPγ tandem phosphatase domains (D1-D2), wild type (domain or fragment)
chain: not shown
notes: RPTPγ (PTPRG), human, tandem catalytic domains D1-D2; PDB 2NLK); Vector, tag state and construct limits are in the Supplemental Data; also called PTPRG; RPTPγ D1-D2; source: E. coli BL21(DE3), purified
  Kd: 3.5 ± 0.3 µM
  stoichiometry N: 2
